US20260226173A1, “COMPOSITIONS INCLUDING ANTI-WT-1 ANTIBODIES & ANTIGEN BINDING FRAGMENTS AND USES THEREOF” (Memorial Sloan-Kettering Cancer Center, priority 2023, published 2026)

Key:
[1] = biological target: WT1 RMF (…)/HLA-A2 complex on cells (human); assay: flow cytometry, primary AML cells (FIG. 18 shows sample 92C per paragraph 796) stained with PE-conjugated isotype control mouse IgG at 3 µg/ml; unstained 124
[2] = biological target: HLA-A2 with endogenous peptides on HLA-A2-positive cells not pulsed with peptide (SKLY-16, normal cells of HLA-A2+ donors) (human); assay: flow cytometry, PBMCs of an HLA-A2 positive healthy donor, CD33 against isotype control
[3] = biological target: HLA-A2 with endogenous peptides on HLA-A2-positive cells not pulsed with peptide (SKLY-16, normal cells of HLA-A2+ donors) (human); assay: flow cytometry, PBMCs of an HLA-A2 positive healthy donor, CD19 against isotype control
[4] = biological target: HLA-A2 with endogenous peptides on HLA-A2-positive cells not pulsed with peptide (SKLY-16, normal cells of HLA-A2+ donors) (human); assay: flow cytometry, whole blood of an HLA-A2 positive healthy donor, neutrophil gate, CD15 against isotype control

MFI [1]	% of PBMCs CD33+ and isotype+ (upper right quadrant) [2] [%]	% of PBMCs CD33- and isotype+ (lower right quadrant) [2] [%]	% of PBMCs CD19+ and isotype+ (upper right quadrant) [3] [%]	% of PBMCs CD19- and isotype+ (lower right quadrant) [3] [%]	% of gated neutrophils CD15+ and isotype+ (upper right quadrant) [4] [%]	% of gated neutrophils CD15- and isotype+ (lower right quadrant) [4] [%]	Substance
372							Iso. (antibody)
	0.03	1.07	0.91	0.05	0.04	0.02	Isotype (antibody)
